Experimental data taken from patent publication US20250282861A1 (SYDDANSK UNIVERSITET, published 2025).

Biological target: T1, recombinant human MFAP4 (microfibrillar-associated protein 4) (human, UniProt P55083 22-255)
T1 construct: It was coated on plates or filters at 10 µg/ml and also served as the ELISA standard; also called rhMFAP4; hrMFAP4
T1 sequence (looked up): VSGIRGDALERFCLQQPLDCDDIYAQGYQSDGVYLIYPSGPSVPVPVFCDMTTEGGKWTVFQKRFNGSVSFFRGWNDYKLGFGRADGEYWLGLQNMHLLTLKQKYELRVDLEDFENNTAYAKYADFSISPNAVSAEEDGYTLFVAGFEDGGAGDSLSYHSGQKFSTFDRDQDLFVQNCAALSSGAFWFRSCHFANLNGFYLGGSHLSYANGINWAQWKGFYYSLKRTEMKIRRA
Experiment: sandwich ELISA, capture antibody coated at 1 µg/ml; rhMFAP4 as standard
Protocol: The next day, plates were washed and blocked with PBS/tween for 1h at room temperature. […] Then, plates were successively incubated with horseradish peroxidase (HRP)-conjugated streptavidin (1:2000, diluted in PBS/tween, Invitrogen) for half an hour at room temperature, O-phenylenediamine dihydrochloride (OPD) (0.4 mg/ml, H1009, Sigma) dissolved in HRP with 0.03% H₂O₂, for 15 min at room temperature in the dark. Finally, 100 μl/well of 1M H₂SO₄ was added to stop the color development. Optical density was read at 492 nm wavelength with 620 nm as reference using ELISA microplate reader.

binding result: binds
B1: HG Hyb 7-5 murine monoclonal antibody raised against human recombinant MFAP4 (antibody, mouse IgG1, V domains shown)
VH: EVQLQQSGPELVKPGASVKLSCKTSGYTFTSYDMNWVKQRPGQGLEWIGWIFPRDGSTKFNEKFKGKATLTVDTSSTTAYMELHSLTSEDSAVYFCARAEIFFDYGFDYWGQGTTLTVSS
VL: DIVMTQSTALMAASPGEKVTITCSVSSSISSSNLHWYQQKSETSPKSWIYGTSNLASGVPGRFSGSGSGTSYSLTISSVEAEDAATYYCQQWSSYPLTFGGGTKLEIK
notes: Used as the capture antibody in the ELISA for human MFAP4
